Measured values: the supplement of paper PMC12783771
± gives the standard deviation of the averaged measurements.

B1: library; numbered along this chain (parent)
chain: MNIQIGELAKRTACPVVTIRFYEQEGLLPPPGRSRGNFRLYGEEHVERLQFIRHCRSLDMPLSDVRTLLSYRKRPDQDCGEVNMLLDEHIRQVESRIGALLELKHHLVELREACSGARPAQSCGILQGLSDCVCDTRGTTAHPSD

Tests used:
[1] = variants of: B1; assay: sfGFP reporter fluorescence (15 h) (µM FITC); higher = higher leak; settings: library round: Round 1; ligand: none
Description: (§1)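 Cell-free biosensing: 1 µL Echo-assembled CFE reactions with linear PbrR variant templates (5 nM) and pPbrR-sfGFP reporter, with 1 µM Pb, 30 µM Zn or no ligand; endpoint sfGFP fluorescence after 15 h at 30 °C calibrated as µM FITC. Round 1 ML-predicted PbrR mutants; 3 biological replicates.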

[2] = variants of: B1; assay: sfGFP reporter fluorescence (15 h) (µM FITC); higher = stronger transcriptional activation; settings: library round: Round 1
Description: as §1

Row | Variant | sfGFP reporter fluorescence [1] | sfGFP reporter fluorescence ([2]; ligand: 1 µM Pb) | sfGFP reporter fluorescence ([2]; ligand: 30 µM Zn)
1 | MNIQIGELAKRTACPVVTIRFYEQEGLLPPPGRSRGNFRLYGEEHVERLQFIRHCRSLDMPLSDVRTLLSYRKRPDQDCGEVTMLLDEHIRQVESRIGALLELKHHLVELREACSGARPAQSCGILQGLSCCVCDTRGTTAHPSD [N83T D131C] | 0.0627 ± 0.0013 | 0.0738 ± 0.0019 | 0.0784 ± 0.0036
2 | MNIQIGELAKRTACPVVTIRFYEQEGLLPPPGRSRGNFRLYGEEHVERLQFIRHCRSLDMPLSDVRTLLSYRKRPDQDCGEVTMLLDEHIRQVESRIGALLELKHHLVELREACSGARPAQSCGILQGLSHCVCDTRGTTAHPSD [N83T D131H] | 0.0632 ± 0.0011 | 0.0836 ± 0.0011 | 0.14 ± 0.012
3 | MNIQIGELAKRTACPVVTIRFYEQEGLLPPPGRSRGNFRLYGEEHVERLQFIRHCRSLDMPLSDVRTLLSYRKRPDQDCGEVTMLLDEHIRQVESRIGALLELKHHLVELREACSGARPAQSCGILQGLSMCVCATRGTTAHPSD [N83T D131M D135A] | 0.0656 ± 0.0024 | 0.0837 ± 0.0023 | 0.205 ± 0.011
4 | MNIQIGELAKRTACPVVTIRFYEQEGLLPPPGRSRGNFRLYGEEHVERLQFIRHCRSLDMPLSDVRTLLSYRKRPDQDCGEVTMLLDEHIRQVESRIGALLELKHHLVELREACSGARPAQSCGILQGLSSCVCDTRGTTAHPSD [N83T D131S] | 0.0602 ± 0.0017 | 0.0836 ± 0.0031 | 0.146 ± 0.016
5 | MNIQIGELAKRTACPVVTIRFYEQEGLLPPPGRSRGNFRLYGEEHVERLQFIRHCRSLDMPLSDVRTLLSYRKRPDQDCGEVTMLLDEHIRQVESRIGALLELKHHLVELREACSGARPAQSCGILQGLSSCVCATRGTTAHPSD [N83T D131S D135A] | 0.0613 ± 0.0024 | 0.0871 ± 0.0043 | 0.193 ± 0.0075
6 | MNIQIGELAKRTACPVVTIRFYEQEGLLPPPGRSRGNFRLYGEEHVERLQFIRHCRSLDMPLSDVRTLLSYRKRPDQDCGEVTMLLDEHIRQVESRIGALLELKHHLVELREACSGARPAQSCGILQGLSSCVCRTRGTTAHPSD [N83T D131S D135R] | 0.064 ± 0.0013 | 0.0955 ± 0.0087 | 0.21 ± 0.0094
7 | MNIQIGELAKRTACPVVTIRFYEQEGLLPPPGRSRGNFRLYGEEHVERLQFIRHCRSLDMPLSDVRTLLSYRKRPDQDCGEVTMLLDEHIRQVESRIGALLELKHHLVELREACSGARPAQSCGILQGLSSCVCDTRGTTAHASD [N83T D131S P143A] | 0.059 ± 0.0033 | 0.0792 ± 0.0071 | 0.156 ± 0.017
8 | MNIQIGELAKRTACPVVTIRFYEQEGLLPPPGRSRGNFRLYGEEHVERLQFIRHCRSLDMPLSDVRTLLSYRKRPDQDCGEVTMLLDEHIRQVESRIGALLELKHHLVELREACSGARPAQSCGILQGLSSCVCDTRGTTAHYSD [N83T D131S P143Y] | 0.0614 ± 0.0015 | 0.0782 ± 0.0092 | 0.144 ± 0.014
9 | MNIQIGELAKRTACPVVTIRFYEQEGLLPPPGRSRGNFRLYGEEHVERLQFIRHCRSLDMPLSDVRTLLSYRKRPDQDCGEVTMLLDEHIRQVESRIGALLELKHHLVELREACSGARPAQSCGILQGLSDCVCATRGTTAHPSD [N83T D135A] | 0.06316 ± 0.00056 | 0.0768 ± 0.0015 | 0.152 ± 0.0032
10 | MNIQIGELAKRTACPVVTIRFYEQEGLLPPPGRSRGNFRLYGEEHVERLQFIRHCRSLDMPLSDVRTLLSYRKRPDQDCGEVTMLLDEHIRQVESRIGALLELKHHLVELREACSGARPAQSCGILQGLSDCVCATRGTTAHASD [N83T D135A P143A] | 0.0625 ± 0.002 | 0.0748 ± 0.0033 | 0.162 ± 0.0078
11 | MNIQIGELAKRTACPVVTIRFYEQEGLLPPPGRSRGNFRLYGEEHVERLQFIRHCRSLDMPLSDVRTLLSYRKRPDQDCGEVTMLLDEHIRQVESRIGALLELKHHLVELREACSGARPAQSCGILQGLSDCVCFTRGTTAHPSD [N83T D135F] | 0.0665 ± 0.00076 | 0.0911 ± 0.014 | 0.435 ± 0.062
12 | MNIQIGELAKRTACPVVTIRFYEQEGLLPPPGRSRGNFRLYGEEHVERLQFIRHCRSLDMPLSDVRTLLSYRKRPDQDCGEVTMLLDEHIRQVESRIGALLELKHHLVELREACSGARPAQSCGILQGLSDCVCPTRGTTAHPSD [N83T D135P] | 0.0602 ± 0.0037 | 0.0771 ± 0.00092 | 0.106 ± 0.0033
13 | MNIQIGELAKRTACPVVTIRFYEQEGLLPPPGRSRGNFRLYGEEHVERLQFIRHCRSLDMPLSDVRTLLSYRKRPDQDCGEVTMLLDEHIRQVESRIGALLELKHHLVELREACSGARPAQSCGILQGLSDCVCVTRGTTAHPSD [N83T D135V] | 0.0628 ± 0.0024 | 0.0727 ± 0.0031 | 0.184 ± 0.011
14 | MNIQIGELAKRTACPVVTIRFYEQEGLLPPPGRSRGNFRLYGEEHVERLQFIRHCRSLDMPLSDVRTLLSYRKRPDQDCGEVTMLLDEHIRQVESRIGALLELKHHLVELREACSGARPAQSCGILQGLSDCVCVTRGTTAHASD [N83T D135V P143A] | 0.0633 ± 0.0021 | 0.0745 ± 0.0035 | 0.189 ± 0.0083
